Patent US20120321699A1

How the values were obtained:
[1] = biological target: A244gD+ gp120 (herpes simplex virus; HIV-1); assay: SPR
HCV E2 (HCV) = assay: Luminex assay, antibody 50 µg/ml
[2] = biological target: Influenza HA (Wisconsin) (influenza virus); assay: Luminex assay, antibody 50 µg/ml
Histone autoantigen [3] = assay: Athena assay, mAb 25 ug/ml; positive >50
Jo 1 autoantigen [4] = assay: Athena assay, mAb 25 ug/ml; positive >50
RNP autoantigen [5] = assay: Athena assay, mAb 25 ug/ml; positive >50
SSA autoantigen [6] = assay: Athena assay, mAb 25 ug/ml; positive >50
SSB autoantigen [7] = assay: Athena assay, mAb 25 ug/ml; positive >50
Scl 70 autoantigen [8] = assay: Athena assay, mAb 25 ug/ml; positive >50
Sm autoantigen [9] = assay: Athena assay, mAb 25 ug/ml; positive >50
centromere B autoantigen [10] = assay: Athena assay, mAb 25 ug/ml; positive >50
Histone autoantigen [11] = assay: Athena assay, mAb 50 ug/ml; positive >50
Jo 1 autoantigen [12] = assay: Athena assay, mAb 50 ug/ml; positive >50
RNP autoantigen [13] = assay: Athena assay, mAb 50 ug/ml; positive >50
SSA autoantigen [14] = assay: Athena assay, mAb 50 ug/ml; positive >50
SSB autoantigen [15] = assay: Athena assay, mAb 50 ug/ml; positive >50
Scl 70 autoantigen [16] = assay: Athena assay, mAb 50 ug/ml; positive >50
Sm autoantigen [17] = assay: Athena assay, mAb 50 ug/ml; positive >50
centromere B autoantigen [18] = assay: Athena assay, mAb 50 ug/ml; positive >50
Histone autoantigen [19] = assay: Athena assay, mAb 12.5 ug/ml; positive >50
Jo 1 autoantigen [20] = assay: Athena assay, mAb 12.5 ug/ml; positive >50
RNP autoantigen [21] = assay: Athena assay, mAb 12.5 ug/ml; positive >50
SSA autoantigen [22] = assay: Athena assay, mAb 12.5 ug/ml; positive >50
SSB autoantigen [23] = assay: Athena assay, mAb 12.5 ug/ml; positive >50
Scl 70 autoantigen [24] = assay: Athena assay, mAb 12.5 ug/ml; positive >50
Sm autoantigen [25] = assay: Athena assay, mAb 12.5 ug/ml; positive >50
centromere B autoantigen [26] = assay: Athena assay, mAb 12.5 ug/ml; positive >50
Histone autoantigen [27] = assay: Athena assay, mAb 6.25 ug/ml; positive >50
Jo 1 autoantigen [28] = assay: Athena assay, mAb 6.25 ug/ml; positive >50
RNP autoantigen [29] = assay: Athena assay, mAb 6.25 ug/ml; positive >50
SSA autoantigen [30] = assay: Athena assay, mAb 6.25 ug/ml; positive >50
SSB autoantigen [31] = assay: Athena assay, mAb 6.25 ug/ml; positive >50
Scl 70 autoantigen [32] = assay: Athena assay, mAb 6.25 ug/ml; positive >50
Sm autoantigen [33] = assay: Athena assay, mAb 6.25 ug/ml; positive >50
centromere B autoantigen [34] = assay: Athena assay, mAb 6.25 ug/ml; positive >50
A244 gD- gp120 (HIV-1) = assay: SPR
[35] = biological target: HV00044 (6240 TZ5 140C) (HIV-1); assay: SPR

Sequence of A244gD+ gp120 (herpes simplex virus; HIV-1) (Q69091 26-52): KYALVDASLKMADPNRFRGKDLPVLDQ

CH02 (antibody)
Kd [1]: 450 nM | background substracted RFUs (HCV E2 (HCV)): 333 RFU | background substracted RFUs [2]: 0.3 RFU | Autoreactivity (Athena) (Histone autoantigen [3]): 11.5 | Autoreactivity (Athena) (Jo 1 autoantigen [4]): 1.5 | Autoreactivity (Athena) (RNP autoantigen [5]): 9 | Autoreactivity (Athena) (SSA autoantigen [6]): 6 | Autoreactivity (Athena) (SSB autoantigen [7]): 4.5 | Autoreactivity (Athena) (Scl 70 autoantigen [8]): 2 | Autoreactivity (Athena) (Sm autoantigen [9]): 3 | Autoreactivity (Athena) (centromere B autoantigen [10]): 9.5 | Autoreactivity (Athena) (Histone autoantigen [11]): 15.5 | Autoreactivity (Athena) (Jo 1 autoantigen [12]): 2 | Autoreactivity (Athena) (RNP autoantigen [13]): 12.5 | Autoreactivity (Athena) (SSA autoantigen [14]): 5.5 | Autoreactivity (Athena) (SSB autoantigen [15]): 4.5 | Autoreactivity (Athena) (Scl 70 autoantigen [16]): 2.5 | Autoreactivity (Athena) (Sm autoantigen [17]): 3.5 | Autoreactivity (Athena) (centromere B autoantigen [18]): 12.5 | Autoreactivity (Athena) (Histone autoantigen [19]): 8.5 | Autoreactivity (Athena) (Jo 1 autoantigen [20]): 1 | Autoreactivity (Athena) (RNP autoantigen [21]): 6 | Autoreactivity (Athena) (SSA autoantigen [22]): 5 | Autoreactivity (Athena) (SSB autoantigen [23]): 3.5 | Autoreactivity (Athena) (Scl 70 autoantigen [24]): 1.5 | Autoreactivity (Athena) (Sm autoantigen [25]): 2.5 | Autoreactivity (Athena) (centromere B autoantigen [26]): 7 | Autoreactivity (Athena) (Histone autoantigen [27]): 7 | Autoreactivity (Athena) (Jo 1 autoantigen [28]): 1.5 | Autoreactivity (Athena) (RNP autoantigen [29]): 5 | Autoreactivity (Athena) (SSA autoantigen [30]): 5 | Autoreactivity (Athena) (SSB autoantigen [31]): 5 | Autoreactivity (Athena) (Scl 70 autoantigen [32]): 2 | Autoreactivity (Athena) (Sm autoantigen [33]): 2.5 | Autoreactivity (Athena) (centromere B autoantigen [34]): 6

CH03 (antibody)
Kd (A244 gD- gp120 (HIV-1)): 728 nM | Kd [1]: 15.6 nM | Kd [35]: 1060 nM | background substracted RFUs (HCV E2 (HCV)): 2910 RFU | background substracted RFUs [2]: 1 RFU | Autoreactivity (Athena) (Histone autoantigen [3]): 386 | Autoreactivity (Athena) (Jo 1 autoantigen [4]): 4 | Autoreactivity (Athena) (RNP autoantigen [5]): 70 | Autoreactivity (Athena) (SSA autoantigen [6]): 6 | Autoreactivity (Athena) (SSB autoantigen [7]): 4 | Autoreactivity (Athena) (Scl 70 autoantigen [8]): 7 | Autoreactivity (Athena) (Sm autoantigen [9]): 10 | Autoreactivity (Athena) (centromere B autoantigen [10]): 34 | Autoreactivity (Athena) (Histone autoantigen [11]): 844 | Autoreactivity (Athena) (Jo 1 autoantigen [12]): 5 | Autoreactivity (Athena) (RNP autoantigen [13]): 132 | Autoreactivity (Athena) (SSA autoantigen [14]): 9 | Autoreactivity (Athena) (SSB autoantigen [15]): 7 | Autoreactivity (Athena) (Scl 70 autoantigen [16]): 12 | Autoreactivity (Athena) (Sm autoantigen [17]): 24 | Autoreactivity (Athena) (centromere B autoantigen [18]): 98 | Autoreactivity (Athena) (Histone autoantigen [19]): 359 | Autoreactivity (Athena) (Jo 1 autoantigen [20]): 4 | Autoreactivity (Athena) (RNP autoantigen [21]): 74 | Autoreactivity (Athena) (SSA autoantigen [22]): 6 | Autoreactivity (Athena) (SSB autoantigen [23]): 6 | Autoreactivity (Athena) (Scl 70 autoantigen [24]): 8 | Autoreactivity (Athena) (Sm autoantigen [25]): 9 | Autoreactivity (Athena) (centromere B autoantigen [26]): 30 | Autoreactivity (Athena) (Histone autoantigen [27]): 231 | Autoreactivity (Athena) (Jo 1 autoantigen [28]): 3 | Autoreactivity (Athena) (RNP autoantigen [29]): 51 | Autoreactivity (Athena) (SSA autoantigen [30]): 5 | Autoreactivity (Athena) (SSB autoantigen [31]): 5 | Autoreactivity (Athena) (Scl 70 autoantigen [32]): 4 | Autoreactivity (Athena) (Sm autoantigen [33]): 7 | Autoreactivity (Athena) (centromere B autoantigen [34]): 19

CH05 (antibody)
Kd (A244 gD- gp120 (HIV-1)): 340 nM | Kd [1]: 26.1 nM | Kd [35]: 1450 nM | background substracted RFUs (HCV E2 (HCV)): 1.3 RFU | background substracted RFUs [2]: 5.5 RFU | Autoreactivity (Athena) (Histone autoantigen [3]): 14 | Autoreactivity (Athena) (Jo 1 autoantigen [4]): 3.5 | Autoreactivity (Athena) (RNP autoantigen [5]): 4.5 | Autoreactivity (Athena) (SSA autoantigen [6]): 12.5 | Autoreactivity (Athena) (SSB autoantigen [7]): 5.5 | Autoreactivity (Athena) (Scl 70 autoantigen [8]): 1.5 | Autoreactivity (Athena) (Sm autoantigen [9]): 3 | Autoreactivity (Athena) (centromere B autoantigen [10]): 9 | Autoreactivity (Athena) (Histone autoantigen [11]): 21.5 | Autoreactivity (Athena) (Jo 1 autoantigen [12]): 9 | Autoreactivity (Athena) (RNP autoantigen [13]): 9 | Autoreactivity (Athena) (SSA autoantigen [14]): 27 | Autoreactivity (Athena) (SSB autoantigen [15]): 13 | Autoreactivity (Athena) (Scl 70 autoantigen [16]): 2 | Autoreactivity (Athena) (Sm autoantigen [17]): 2.5 | Autoreactivity (Athena) (centromere B autoantigen [18]): 14.5 | Autoreactivity (Athena) (Histone autoantigen [19]): 11 | Autoreactivity (Athena) (Jo 1 autoantigen [20]): 2.5 | Autoreactivity (Athena) (RNP autoantigen [21]): 3.5 | Autoreactivity (Athena) (SSA autoantigen [22]): 8 | Autoreactivity (Athena) (SSB autoantigen [23]): 5 | Autoreactivity (Athena) (Scl 70 autoantigen [24]): 1.5 | Autoreactivity (Athena) (Sm autoantigen [25]): 3.5 | Autoreactivity (Athena) (centromere B autoantigen [26]): 6.5 | Autoreactivity (Athena) (Histone autoantigen [27]): 10 | Autoreactivity (Athena) (Jo 1 autoantigen [28]): 2.5 | Autoreactivity (Athena) (RNP autoantigen [29]): 3 | Autoreactivity (Athena) (SSA autoantigen [30]): 7 | Autoreactivity (Athena) (SSB autoantigen [31]): 6 | Autoreactivity (Athena) (Scl 70 autoantigen [32]): 1.5 | Autoreactivity (Athena) (Sm autoantigen [33]): 2.5 | Autoreactivity (Athena) (centromere B autoantigen [34]): 6

4E10 (antibody)
background substracted RFUs (HCV E2 (HCV)): 89.2 RFU | background substracted RFUs [2]: 0 RFU | Autoreactivity (Athena) (Histone autoantigen [3]): 274 | Autoreactivity (Athena) (Jo 1 autoantigen [4]): 138 | Autoreactivity (Athena) (RNP autoantigen [5]): 15 | Autoreactivity (Athena) (SSA autoantigen [6]): 247 | Autoreactivity (Athena) (SSB autoantigen [7]): 206 | Autoreactivity (Athena) (Scl 70 autoantigen [8]): 4 | Autoreactivity (Athena) (Sm autoantigen [9]): 7 | Autoreactivity (Athena) (centromere B autoantigen [10]): 19 | Autoreactivity (Athena) (Histone autoantigen [11]): 333 | Autoreactivity (Athena) (Jo 1 autoantigen [12]): 156 | Autoreactivity (Athena) (RNP autoantigen [13]): 20 | Autoreactivity (Athena) (SSA autoantigen [14]): 306 | Autoreactivity (Athena) (SSB autoantigen [15]): 254 | Autoreactivity (Athena) (Scl 70 autoantigen [16]): 3 | Autoreactivity (Athena) (Sm autoantigen [17]): 9 | Autoreactivity (Athena) (centromere B autoantigen [18]): 31 | Autoreactivity (Athena) (Histone autoantigen [19]): 160 | Autoreactivity (Athena) (Jo 1 autoantigen [20]): 87 | Autoreactivity (Athena) (RNP autoantigen [21]): 9 | Autoreactivity (Athena) (SSA autoantigen [22]): 169 | Autoreactivity (Athena) (SSB autoantigen [23]): 124 | Autoreactivity (Athena) (Scl 70 autoantigen [24]): 3 | Autoreactivity (Athena) (Sm autoantigen [25]): 5 | Autoreactivity (Athena) (centromere B autoantigen [26]): 13 | Autoreactivity (Athena) (Histone autoantigen [27]): 113 | Autoreactivity (Athena) (Jo 1 autoantigen [28]): 65 | Autoreactivity (Athena) (RNP autoantigen [29]): 6 | Autoreactivity (Athena) (SSA autoantigen [30]): 115 | Autoreactivity (Athena) (SSB autoantigen [31]): 93 | Autoreactivity (Athena) (Scl 70 autoantigen [32]): 2 | Autoreactivity (Athena) (Sm autoantigen [33]): 4 | Autoreactivity (Athena) (centromere B autoantigen [34]): 9

Synagis (anti-RSV control mAb) (antibody)
background substracted RFUs (HCV E2 (HCV)): 0.5 RFU | background substracted RFUs [2]: 1 RFU

CH04 (antibody)
Kd (A244 gD- gp120 (HIV-1)): 410 nM | Kd [1]: 25.5 nM | Kd [35]: 360 nM | background substracted RFUs (HCV E2 (HCV)): 0.5 RFU | background substracted RFUs [2]: 2.5 RFU | Autoreactivity (Athena) (Histone autoantigen [3]): 16 | Autoreactivity (Athena) (Jo 1 autoantigen [4]): 3 | Autoreactivity (Athena) (RNP autoantigen [5]): 6 | Autoreactivity (Athena) (SSA autoantigen [6]): 11 | Autoreactivity (Athena) (SSB autoantigen [7]): 8 | Autoreactivity (Athena) (Scl 70 autoantigen [8]): 2 | Autoreactivity (Athena) (Sm autoantigen [9]): 2 | Autoreactivity (Athena) (centromere B autoantigen [10]): 13 | Autoreactivity (Athena) (Histone autoantigen [11]): 26 | Autoreactivity (Athena) (Jo 1 autoantigen [12]): 5 | Autoreactivity (Athena) (RNP autoantigen [13]): 9 | Autoreactivity (Athena) (SSA autoantigen [14]): 19 | Autoreactivity (Athena) (SSB autoantigen [15]): 11 | Autoreactivity (Athena) (Scl 70 autoantigen [16]): 3 | Autoreactivity (Athena) (Sm autoantigen [17]): 3 | Autoreactivity (Athena) (centromere B autoantigen [18]): 18 | Autoreactivity (Athena) (Histone autoantigen [19]): 11 | Autoreactivity (Athena) (Jo 1 autoantigen [20]): 2.5 | Autoreactivity (Athena) (RNP autoantigen [21]): 4 | Autoreactivity (Athena) (SSA autoantigen [22]): 7 | Autoreactivity (Athena) (SSB autoantigen [23]): 4.5 | Autoreactivity (Athena) (Scl 70 autoantigen [24]): 2 | Autoreactivity (Athena) (Sm autoantigen [25]): 2.5 | Autoreactivity (Athena) (centromere B autoantigen [26]): 8 | Autoreactivity (Athena) (Histone autoantigen [27]): 9.5 | Autoreactivity (Athena) (Jo 1 autoantigen [28]): 2 | Autoreactivity (Athena) (RNP autoantigen [29]): 3 | Autoreactivity (Athena) (SSA autoantigen [30]): 6 | Autoreactivity (Athena) (SSB autoantigen [31]): 6 | Autoreactivity (Athena) (Scl 70 autoantigen [32]): 1.5 | Autoreactivity (Athena) (Sm autoantigen [33]): 3 | Autoreactivity (Athena) (centromere B autoantigen [34]): 6.5
